Experimental data: doi:10.1101/2020.12.20.423689 (bioRxiv, 2020)

Molecular target: mitoribosomal protein uL12m (human, UniProt P52815 37-198)
Assay: cryo-EM structure

binding result: binds
B1: human mitochondrial elongation factor G2 (EF-G2mt) (natural protein)
chain: MLTNLRIFAMSHQTIPSVYINNICCYKIRASLKRLKPHVPLGRNCSSLPGLIGNDIKSLHSIINPPIAKIRNIGIMAHIDAGKTTTTERILYYSGYTRSLGDVDDGDTVTDFMAQERERGITIQSAAVTFDWKGYRVNLIDTPGHVDFTLEVERCLRVLDGAVAVFDASAGVEAQTLTVWRQADKHNIPRICFLNKMDKTGASFKYAVESIREKLKAKPLLLQLPIGEAKTFKGVVDVVMKEKLLWNCNSNDGKDFERKPLLEMNDPELLKETTEARNALIEQVADLDDEFADLVLEEFSENFDLLPAEKLQTAIHRVTLAQTAVPVLCGSALKNKGIQPLLDAVTMYLPSPEERNYEFLQWYKDDLCALAFKVLHDKQRGPLVFMRIYSGTIKPQLAIHNINGNCTERISRLLLPFADQHVEIPSLTAGNIALTVGLKHTATGDTIVSSKSSALAAARRAEREGEKKHRQNNEAERLLLAGVEIPEPVFFCTIEPPSLSKQPDLEHALKCLQREDPSLKVRLDPDSGQTVLCGMGELHIEIIHDRIKREYGLETYLGPLQVAYRETILNSVRATDTLDRTLGDKRHLVTVEVEARPIETSSVMPVIEFEYAESINEGLLKVSQEAIENGIHSACLQGPLLGSPIQDVAITLHSLTIHPGTSTTMISACVSRCVQKALKKADKQVLEPLMNLEVTVARDYLSPVLADLAQRRGNIQEIQTRQDNKVVIGFVPLAEIMGYSTVLRTLTSGSATFALELSTYQAMNPQDQNTLLNRRSGLT
